Data reported in publication PMC11480844.

B1: H2-Kb / E4 (parent)
chain 1: AQSVTQPDARVTVSEGASLQLRCKYSYSGTPYLFWYVQYPRQGLQLLLKYYSGDPVVQGVNGFEAEFIKSNSSFHLRKASVHWSDSAVYFCAVSAGQGGSAKLIFGEGTKLTVSS
chain 2: GGIITQTPKFLIGQEGQKLTLKCQQNFNHDTMYWYRQDSGKGLRLIYYSITENDLQKGDLSEGYDASREKKSSFSLTVTSAQKNEMAVFLCASSIWGDSYEQYFGPGTRLTVL
chain 3: not shown
chain 4: IQKTPQIQVYSRHPPENGKPNILNCYVTQFHPPHIEIQMLKNGKKIPKVEMSDMSFSKDWSFYILAHTEFTPTETDTYACRVKHDSMAEPKTVYWDRDM
chain 5: SIINFEKL
B2: H2-Kb / B16 (parent)
chain 1: QQQVRQSPQSLTVWEGGTTVLTCSYEDSTFNYFPWYQQFPGEGPALLISILSVSDKKEDGRFTTFFNKREKKLSLHIIDSQPGDSATYFCAARGSALGRLHFGAGTQLIVIP
chain 2: EAAVTQSPRSKVAVTGGKVTLSCHQTNNHDYMYWYRQDTGHGLRLIHYSYVADSTEKGDIPDGYKASRPSQENFSLILELASLSQTAVYFCASSDGTNQAPLFGEGTRLSVL
chain 3: not shown
chain 4: B1 chain 4
chain 5: SIINFEKL

Variants of: B1
Experiment: % of reporter cells activated (NFAT-GFP), raw
Details: with E4
Note: test concentration or dose not given here.

Ratio to parent of substitutions, site by site:
chain 5 I2: V 0.921; E 0.873; A 1.43; Q 0.937; G 0.873; K 0.746; W 1.11; L 1.1; H 1.06; P 0.937; Y 0.825; F 0.746; N 1.27; D 0.762; T 0.968; R 0.556; S 0.651; M 1.14; C 1.19
chain 5 S1: I 0.825; N 0.825; M 0.857; F 0.857; E 0.698; K 1.24; T 0.905; R 0.565; Q 0.889; P 0.857; D 0.984; W 0.841; H 0.841; A 0.857; G 0.937; V 0.889; C 0.952; L 0.937; Y 0.873
chain 5 I3: S 0.762; N 0.667; H 0.921; P 0.206; M 1; R 0.603; F 0.762; K 0.937; Y 0.508; L 1.22; C 0.762; Q 0.81; W 0.762; G 0.825; D 0.73; T 0.571; V 0.698; A 0.921; E 1.37
chain 5 N4: Q 0.714; R 0.905; T 0.635; K 1.1; F 0.635; L 1.02; M 0.968; P 0.651; I 0.873; C 0.921; W 0.286; H 1.05; V 0.825; E 0.603; G 0.698; Y 0.762; A 0.889; D 0.794; S 0.714
chain 5 K7: E 0.873; L 0.508; W 0.413; A 0.413; D 0.444; M 0.492; V 0.841; Q 0.521; I 1.29; F 0.49; T 0.378; S 0.46; C 1.32; R 0.633; N 0.437; G 0.841; Y 0.425; P 0.508; H 0.905
chain 5 L8: F 0.427; I 0.286; P 0.762; K 0.635; V 0.603; M 0.381; W 0.762; C 0.46; S 0.51; Y 0.6; A 0.286; H 0.825; R 1.29; D 0.444; G 0.746; N 0.778; T 0.73; Q 0.524; E 0.619
chain 5 F5: R 0.508; T 0.841; V 0.206; Q 0.778; S 0.556; W 0.54; Y 0.492; P 0.762

Variants of: B2
Experiment: % of reporter cells activated (NFAT-GFP), raw
Details: with B16; scale: % of reporter cells activated

Ratio to parent of substitutions, site by site:
chain 5 F5: R 1.2; I 1.07; N 1.21; S 1.27; Y 1.31; G 1.52; Q 1.39; K 1.52; W 1.26; M 1.52; A 1.48; E 1.52; T 1.4; C 1.46; V 0.945; H 1.61; L 1.44; P 1.74; D 1.4
chain 5 E6: T 1.4; V 1.2; K 1.12; A 1.57; N 1.36; R 1.29; G 1.23; I 0.917; M 1.43; L 1.21; S 1.25; W 1.05; F 1.48; P 1.09; Q 1.5; C 2.48; H 1.39; D 1.36; Y 1.02
chain 5 I2: A 1.49; C 1.48; E 1.47; H 1.62; G 1.56; D 1.19; F 1.2
